The target of this test is T1, equine FcRn complex (equine, UniProt F6XZ61 19-292; P30441 21-118).
T1 construct: Heterodimer of p51 extracellular domain (Avi-tag, 8x His) and Flag-tagged beta-2-microglobulin from HEK293 cells; also called horse FcRn
The experiment in a line: SPR (Biacore 8K+), pH 5.9, 25 C; FcRn captured by anti-His, IgG as analyte; 1:1 kinetic model. On the technique in general: In SPR one partner is held on a chip, and binding of the other changes the refractive index at the surface.

The Kd is a measure of binding affinity in units of concentration.

B1: Equine G426Y (antibody)
chain: APELLGGPSVFIFPPNPKDTLMITRTPEVTCVVVDVSQENPDVKFNWYMDGVEVRTATTRPKEEQFNSTYRVVSVLRIQHQDWLSGKEFKCKVNNQALPQPIERTITKTKGRSQEPQVYVLAPHPDELSKSKVSVTCLVKDFYPPEINIEWQSNGQPELETKYSTTQAQQDSDGSYFLYSKLSVDRNRWQQGTTFTCYVMHEALHNHYTQKNVSKNPGK
Take B1: the “Fold increase over wild-type KD” value came out at 2.8 fold and the Kd was 52.3 nM.

The record behind these values is patent US20220177549A1 (INVETX, published 2022).
